The source of these data is patent publication US5679770A, “Polypeptide, DNA fragment encoding the same, drug composition containing the same and process for producing the same” (Mochida Pharmaceutical Co., Ltd., priority 1991, dated 1997).

Positions count from the first letter of the chain named. Names and notes keep the numbering of the source. Like-named read-outs stand apart in the source and are kept apart here.

The target in assay [1] is activated blood coagulation factor X (FXa) (Homo sapiens, UniProt P00742). To be noted: background statement; cited from earlier work.
The target in assay [2] is human FXa (American Diagnostica Inc.) (human) (UniProt P00742).
The target is the same in assay [3]. The source holds these as a separate data set.
Assay [4] shares this target. The source holds these as a separate data set.
Assay [5] has the same target. This is another data set of the same source.
Assay [6] has the same target. The source holds these as a separate data set.

Chain of human FXa (American Diagnostica Inc.) (human) (P00742 41-488 limits assumed): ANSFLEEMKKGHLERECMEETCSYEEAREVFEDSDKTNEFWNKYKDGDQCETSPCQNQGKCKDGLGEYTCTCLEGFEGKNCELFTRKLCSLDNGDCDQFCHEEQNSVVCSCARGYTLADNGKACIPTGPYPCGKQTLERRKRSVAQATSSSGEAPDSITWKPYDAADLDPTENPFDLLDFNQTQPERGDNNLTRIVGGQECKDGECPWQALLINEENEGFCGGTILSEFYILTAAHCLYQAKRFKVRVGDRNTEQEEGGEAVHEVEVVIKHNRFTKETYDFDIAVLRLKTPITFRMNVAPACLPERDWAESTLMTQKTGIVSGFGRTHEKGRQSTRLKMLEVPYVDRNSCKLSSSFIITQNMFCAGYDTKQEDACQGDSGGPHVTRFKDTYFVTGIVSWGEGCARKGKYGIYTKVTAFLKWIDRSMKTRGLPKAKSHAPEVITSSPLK
Chain of activated blood coagulation factor X (FXa) (P00742 235-488 limits assumed): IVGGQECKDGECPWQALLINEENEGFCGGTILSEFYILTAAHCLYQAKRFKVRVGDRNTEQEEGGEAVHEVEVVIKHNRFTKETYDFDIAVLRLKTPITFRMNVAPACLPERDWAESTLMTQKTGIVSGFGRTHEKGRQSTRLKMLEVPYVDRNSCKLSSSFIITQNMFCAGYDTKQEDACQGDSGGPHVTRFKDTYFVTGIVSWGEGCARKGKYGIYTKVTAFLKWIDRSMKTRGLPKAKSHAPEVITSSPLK
Chain of activated blood coagulation factor X (FXa) (P00742 41-179 partner limits assumed): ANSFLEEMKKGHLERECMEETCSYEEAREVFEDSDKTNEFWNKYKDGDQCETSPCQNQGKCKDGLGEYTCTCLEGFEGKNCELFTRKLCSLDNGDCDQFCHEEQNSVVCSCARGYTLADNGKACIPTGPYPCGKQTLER

For the molecule “polypeptide of formula 1: unsubstituted parent polypeptide whose sequence coincides with a part of UTI or Bikunins (HI-30) (CNLPIVRGPCRAFIQLWAFDAVKGKCVLFPYGGCQGNGNKFYSEKECREYC) [reference compound]”, in assay [1], the FXa-inhibiting activity entry is “high FXa-inhibiting activity”.

B1: urinary trypsin inhibitor (protein, UniProt P02760 206-352, looked up)
Inter-alpha-trypsin inhibitor …: AVLPQEEEGSGGGQLVTEVTKKEDSCQLGYSAGPCMGMTSRYFYNGTSMACETFQYGGCMGNGNNFVTEKECLQTCRTVAACNLPIVRGPCRAFIQLWAFDAVKGKCVLFPYGGCQGNGNKFYSEKECREYCGVPGDGDEELLRFSN
modifications: Inter-alpha-trypsin inhibitor light chain
For B1, the FXa-inhibiting activity result in assay [1] is reported as “hardly show such an activity”.

B2: HI-30: Bikunins (HI-30), natural protease inhibitor (protein, UniProt P02760 206-352, looked up)
Inter-alpha-trypsin inhibitor …: B1 Inter-alpha-trypsin inhibitor …
modifications: Inter-alpha-trypsin inhibitor light chain
With B2, the FXa-inhibiting activity result in assay [1] is given as “hardly show such an activity”.

B3: polypeptide Q19R (peptide)
chain: AACNLPIVRGPCRAFIRLWAFDAVKGKCVLFPYGGCQGNGNKFYSEK
Consider B3, for which the human FXa-inhibiting activity (substrate S-2222, residual FXa activity) (times higher than polypeptide AN68) in assay [2] came to 6.

B4: polypeptide Q19R/Y46E (peptide)
chain: B3 chain with Y44E
B4: in assay [3], the human FXa-inhibiting activity (substrate S-2222, residual FXa activity) (times higher than polypeptide AN68) was determined as 10.

B5: polypeptide Q19K/Y46E (peptide)
chain: B3 chain with R17K, Y44E
Take B5: the human FXa-inhibiting activity (substrate S-2222, residual FXa activity) (times higher than polypeptide AN68) in assay [4] amounted to 10.

B6: polypeptide R11E/Y46E (peptide)
chain: B3 chain with R9E, R17Q, Y44E
With B6, in assay [5], the human FXa-inhibiting activity (substrate S-2222, residual FXa activity) (times higher than polypeptide AN68) worked out at 3.

B7: polypeptide Q19K (peptide)
chain: DDAACNLPIVRGPCRAFIKLWAFDAVKGKCVLFPYGGCQGNGNKFYSEK
B7 showed a human FXa-inhibiting activity (substrate S-2222, residual FXa activity) (times higher than polypeptide TN70) in assay [6] of 5.
